Results from US20160271142A1 (CELLERANT THERAPEUTICS, published 2016).

Experiments:
[1] = molecular target: T1, C type Lectin Like molecule 1 (CLL-1), on human cell lines (human, UniProt Q5QGZ9 1-265); assay: cell-based or functional assay
T1 sequence (looked up): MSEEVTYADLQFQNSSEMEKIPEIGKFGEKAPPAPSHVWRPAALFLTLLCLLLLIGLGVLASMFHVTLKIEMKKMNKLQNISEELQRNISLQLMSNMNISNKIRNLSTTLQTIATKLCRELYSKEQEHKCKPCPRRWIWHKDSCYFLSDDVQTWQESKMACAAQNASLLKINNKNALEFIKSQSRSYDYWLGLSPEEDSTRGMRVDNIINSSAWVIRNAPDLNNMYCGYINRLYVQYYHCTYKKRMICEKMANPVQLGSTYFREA

[2] = molecular target: T1, C type Lectin Like molecule 1 (CLL-1), …; assay: cell-based or functional assay; remark: listed apart in the source
[3] = molecular target: T1, C type Lectin Like molecule 1 (CLL-1), …; assay: cell-based or functional assay; remark: listed apart in the source
[4] = molecular target: T1, C type Lectin Like molecule 1 (CLL-1), …; assay: mean fluorescent intensity of ADC binding to HEL92.1.7-CLL1 cells, relative to control C0-CLT-D202 ADC
[5] = molecular target: T1, C type Lectin Like molecule 1 (CLL-1), …; assay: mean fluorescent intensity of ADC binding to AML5 cells (express CLL-1), relative to control C0-CLT-D202 ADC
[6] = molecular target: T1, C type Lectin Like molecule 1 (CLL-1), …; assay: mean fluorescent intensity of ADC binding to HL-60 cells (express CLL-1), relative to control C0-CLT-D202 ADC
[7] = molecular target: T1, C type Lectin Like molecule 1 (CLL-1), …; assay: mean fluorescent intensity of ADC binding to 293 cells, relative to control C0-CLT-D202 ADC; CLL-1 status of this line not stated
[8] = molecular target: T1, C type Lectin Like molecule 1 (CLL-1), …; assay: mean fluorescent intensity of ADC binding to AML2 cells, relative to control C0-CLT-D202 ADC; CLL-1 status of this line not stated
[9] = molecular target: T1, C type Lectin Like molecule 1 (CLL-1), …; assay: mean fluorescent intensity of ADC binding to PL21 cells, relative to control C0-CLT-D202 ADC; CLL-1 status of this line not stated
[10] = molecular target: T1, C type Lectin Like molecule 1 (CLL-1), …; assay: mean fluorescent intensity of ADC binding to U937 cells, relative to control C0-CLT-D202 ADC; CLL-1 status of this line not stated
[11] = molecular target: T1, C type Lectin Like molecule 1 (CLL-1), …; assay: mean fluorescent intensity of ADC binding to EOL-1 cells, relative to control C0-CLT-D202 ADC; CLL-1 status of this line not stated
[12] = molecular target: T1, C type Lectin Like molecule 1 (CLL-1), …; assay: mean fluorescent intensity of ADC binding to KG-1a cells, relative to control C0-CLT-D202 ADC; CLL-1 status of this line not stated
[13] = molecular target: T1, C type Lectin Like molecule 1 (CLL-1), …; assay: mean fluorescent intensity of ADC binding to SHI-1 cells, relative to control C0-CLT-D202 ADC; CLL-1 status of this line not stated
[14] = molecular target: T1, C type Lectin Like molecule 1 (CLL-1), …; assay: mean fluorescent intensity of ADC binding to HNT-34 cells, relative to control C0-CLT-D202 ADC; CLL-1 status of this line not stated
[15] = molecular target: T1, C type Lectin Like molecule 1 (CLL-1), …; assay: mean fluorescent intensity of ADC binding to parental HEL92.1.7 cells, relative to control C0-CLT-D202 ADC; CLL-1 status of this line not stated

B1: C6-CLT-D202 ADC (humanized anti-CLL1 antibody C6-S239C-CYSMAB, cys-substituted at position 239, conjugated to CLT-D202) (antibody, V domains shown)
VH: EVQLVQSGAEVKKPGASVKMSCKASGYTFTSYFIHWVRQAPGQGLEWIGFINPYNDGSKYAQKFQGRATLTSDKSTSTVYMELSSLRSEDTAVYYCTRDDGYYGYAMDYWGQGTLVTVSS
VL: DIQMTQSPSSLSASVGDRVTLTCRATQELSGYLSWLQQKPGKAIKRLIYAASTLDSGVPSRFSGNRAGTDYTLTISSLQPEDFATYYCLQYAIYPYTFGQGTKLEIK
modifications: CLT-D202 (maleimide linker-drug) on the engineered cysteine at position 239 (S239C) of the heavy chain constant region; drug to antibody ratio 1.7
Q: B1 was tested. Which “IC50, killing of proliferating AML-5 cells” value [1] did it give?
A: 0.03 µg/mL

Q: What about the “IC50, killing of quiescent AML-5 cells” value [1] of the same binder?
A: 0.02 µg/mL

Q: And the “decrease in IC50 of cell killing, TF1-CLL1 against TF1” value [1]?
A: ~1000 fold

Q: And the “target dependent cell killing, HL-60 cells, relative to control C0-CLT-D202 ADC” value [1]?
A: > 500 fold

Q: And the “IC50 ug/mL, cell killing, TF1-CLL1 cells” value [2]?
A: 0.008 µg/mL

Q: What about the “IC50 ng/mL, cell killing, AML5 cells” value [3] of the same binder?
A: 13 ng/mL

Q: And the “IC50 ng/mL, cell killing, HEL92.1.7-CLL1 cells” value [3]?
A: 17 ng/mL

Q: And the “IC50 ng/mL, cell killing, HL-60 cells” value [3]?
A: 11 ng/mL

Q: And the “C6 relative MFI C6/C0” value [4]?
A: 26.1 ratio

Q: And the “C6 relative MFI C6/C0” value [5]?
A: 15 ratio

Q: And the “C6 relative MFI C6/C0” value [6]?
A: 20 ratio

Q: What about the “C6 relative MFI C6/C0” value [7] of the same binder?
A: 1.2 ratio

Q: And the “C6 relative MFI C6/C0” value [8]?
A: 13 ratio

Q: And the “C6 relative MFI C6/C0” value [9]?
A: 14.7 ratio

Q: And the “C6 relative MFI C6/C0” value [10]?
A: 14.7 ratio

Q: And the “C6 relative MFI C6/C0” value [11]?
A: 20.5 ratio

Q: And the “C6 relative MFI C6/C0” value [12]?
A: 1.3 ratio

Q: And the “C6 relative MFI C6/C0” value [13]?
A: 1.4 ratio

Q: What about the “C6 relative MFI C6/C0” value [14] of the same binder?
A: 5.8 ratio

Q: And the “C6 relative MFI C6/C0” value [15]?
A: 1.3 ratio
